Values quoted from earlier work, collected in PMC9697831.
Read-outs that look alike come from different tables or passages of the source.

Columns and labels:
[1] = target: Kv1.3 (Homo sapiens) (UniProt P22001)
[2] = target: Kv1.3 (Homo sapiens) (UniProt P22001); remark: listed apart in the source

Sequence of Kv1.3 (Homo sapiens) (P22001 whole entry): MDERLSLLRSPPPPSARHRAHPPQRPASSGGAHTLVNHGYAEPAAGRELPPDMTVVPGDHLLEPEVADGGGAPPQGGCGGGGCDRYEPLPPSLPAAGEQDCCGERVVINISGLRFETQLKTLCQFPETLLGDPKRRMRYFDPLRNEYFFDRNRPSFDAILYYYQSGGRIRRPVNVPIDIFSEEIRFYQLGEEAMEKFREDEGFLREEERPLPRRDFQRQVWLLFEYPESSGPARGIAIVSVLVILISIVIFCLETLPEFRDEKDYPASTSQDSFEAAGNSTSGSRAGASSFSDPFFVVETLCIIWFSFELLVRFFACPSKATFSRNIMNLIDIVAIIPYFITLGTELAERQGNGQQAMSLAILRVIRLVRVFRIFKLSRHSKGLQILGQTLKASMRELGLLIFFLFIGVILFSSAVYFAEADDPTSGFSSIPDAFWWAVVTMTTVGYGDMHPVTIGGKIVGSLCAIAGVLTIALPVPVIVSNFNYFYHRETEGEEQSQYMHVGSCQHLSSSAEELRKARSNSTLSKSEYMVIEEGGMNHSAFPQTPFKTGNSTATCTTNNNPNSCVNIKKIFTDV
Sequence of Ts6 (P59936 23-62): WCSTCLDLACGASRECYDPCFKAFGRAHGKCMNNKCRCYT
Sequence of Anuroctoxin (P0C166 whole entry): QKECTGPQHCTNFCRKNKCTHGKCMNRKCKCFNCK

Row | Substance | Kd [1] | Kd [2]
1 | Anuroctoxin (from UniProt P0C166) | 0.73 nM | 
2 | Ts6 (from UniProt P59936) |  | 0.55 nM
